Laboratory results published in patent US20230303658A1 (published 2023).

Key:
CD16V_K128E_K131E [1] = molecular target: T1, CD16V_K128E_K131E (human, UniProt P08637 19-208); test: ELISA: EpCAM coated, anti-EpCAM antibody captured, FLAG-tagged CD16V protein titrated from 10 µg/mL, anti-FLAG-HRP detection
T1 construct: Soluble FLAG-tagged mutant
Procedure: (§1) After incubation at room temperature for one hour, the plate was washed with TBS-T. Next, 20 μL of horseradish peroxidase-labeled anti-FLAG (registered trademark) M2 antibody diluted with the diluent was added to each well as a detection antibody. After incubating at room temperature for one hour, the plate was washed with TBS-T. After adding TMB+Substrate-Chromogen and incubating, the reaction was stopped by adding 1M sulfuric acid, and the absorbance at 450 nm and reference wavelength were measured using Infinite 200 PRO.

CD16V_K131D [2] = molecular target: T2, CD16V_K131D (human, UniProt P08637 19-208); test: as above
T2 construct: Soluble FLAG-tagged mutant; also called K149D (AAH17865.1 numbering)
Procedure: as §1

CD16V_K131D_N38Q [3] = molecular target: T3, CD16V_K131D_N38Q (human, UniProt P08637 19-208); test: as above
T3 construct: Soluble FLAG-tagged mutant
Procedure: as §1

CD16V_K128E_K131D [4] = molecular target: T4, CD16V_K128E_K131D (human, UniProt P08637 19-208); test: as above
T4 construct: Soluble FLAG-tagged mutant
Procedure: as §1

CD16V_K131D_N74Q [5] = molecular target: T5, CD16V_K131D_N74Q (human, UniProt P08637 19-208); test: as above
T5 construct: Soluble FLAG-tagged mutant
Procedure: as §1

[6] = molecular target: T6, CD16V protein (extracellular portion of CD16A V158 with C-terminal FLAG sequence) (human, UniProt P08637 19-208); test: ELISA: EpCAM coated, anti-EpCAM antibody captured, FLAG-tagged CD16V protein titrated, anti-FLAG-HRP detection
T6 construct: Soluble protein from ExpiCHO-S cells, purified on anti-FLAG gel
Procedure: as §1

[7] = molecular target: T6, CD16V protein (extracellular portion of …); test: ELISA: EpCAM coated, anti-EpCAM antibody captured, FLAG-tagged CD16V protein titrated from 10 µg/mL, anti-FLAG-HRP detection
Procedure: as §1

CD16V_K128E_K131E [8] = molecular target: T1, CD16V_K128E_K131E; test: ELISA: EpCAM coated, anti-EpCAM antibody captured, FLAG-tagged CD16V protein titrated, anti-FLAG-HRP detection
Procedure: as §1

CD16V_K131D [9] = molecular target: T2, CD16V_K131D; test: as above
Procedure: as §1

CD16V_K131D_N38Q [10] = molecular target: T3, CD16V_K131D_N38Q; test: as above
Procedure: as §1

CD16V_K128E_K131D [11] = molecular target: T4, CD16V_K128E_K131D; test: as above
Procedure: as §1

CD16V_K131D_N74Q [12] = molecular target: T5, CD16V_K131D_N74Q; test: as above
Procedure: as §1

T1 sequence (P08637 other isoform, or with tags, fused parts or gaps K128E K131E K128E K131E): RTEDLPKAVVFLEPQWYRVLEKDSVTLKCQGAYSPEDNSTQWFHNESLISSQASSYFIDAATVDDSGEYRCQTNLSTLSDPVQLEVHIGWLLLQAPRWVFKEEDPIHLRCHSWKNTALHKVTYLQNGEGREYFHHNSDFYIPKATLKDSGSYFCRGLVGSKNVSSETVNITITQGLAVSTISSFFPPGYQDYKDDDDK
T2 sequence (P08637 other isoform, or with tags, fused parts or gaps K131D K131D): as the sequence (P08637 other isoform, or with tags, fused parts or gaps K128E K131E K128E K131E) above, with E128K, E131D counted along it
T4 sequence (P08637 other isoform, or with tags, fused parts or gaps K128E K131D K128E K131D): as the sequence (P08637 other isoform, or with tags, fused parts or gaps K128E K131E K128E K131E) above, with E131D counted along it
T6 sequence (P08637 other isoform, or with tags, fused parts or gaps): as the sequence (P08637 other isoform, or with tags, fused parts or gaps K128E K131E K128E K131E) above, with E128K, E131K counted along it
T5 sequence (P08637 other isoform, or with tags, fused parts or gaps K131D N74Q K131D N74Q): as the sequence (P08637 other isoform, or with tags, fused parts or gaps K128E K131E K128E K131E) above, with N74Q, E128K, E131D counted along it
T3 sequence (P08637 other isoform, or with tags, fused parts or gaps K131D N38Q K131D N38Q): as the sequence (P08637 other isoform, or with tags, fused parts or gaps K128E K131E K128E K131E) above, with N38Q, E128K, E131D counted along it

Binder | binding result (CD16V_K128E_K131E [1]) | binding result (CD16V_K131D [2]) | binding result (CD16V_K131D_N38Q [3]) | binding result (CD16V_K128E_K131D [4]) | binding result (CD16V_K131D_N74Q [5]) | binding result [6] | binding result [7] | binding result (CD16V_K128E_K131E [8]) | binding result (CD16V_K131D [9]) | binding result (CD16V_K131D_N38Q [10]) | binding result (CD16V_K128E_K131D [11]) | binding result (CD16V_K131D_N74Q [12])
Fc_RK type anti-EpCAM antibody (antibody, human IgG1, kappa) heavy: not shown light: NIVMTQSPKSMSMSVGERVTLTCKASENVVTYVSWYQQKPEQSPKLLIYGASNRYTGVPDRFTGSGSATDFTLTISSVQAEDLADYHCGQGYSYPYTFGGGTKLEIKRTVAAPSVFIFPPSDEQLKSGTASVVCLLNNFYPREAKVQWKVDNALQSGNSQESVTEQDSKDSTYSLSSTLTLSKADYEKHKVYACEVTHQGLSSPVTKSFNRGEC | binds | binds | binds | binds | binds | no binding (tested: CD16V protein up to 10 µg/mL) | – | – | – | – | – | –
Fc_wt type anti-EpCAM antibody (antibody, human IgG1, kappa, also called edrecolomab variable regions on human Igγ1) heavy: not shown light: NIVMTQSPKSMSMSVGERVTLTCKASENVVTYVSWYQQKPEQSPKLLIYGASNRYTGVPDRFTGSGSATDFTLTISSVQAEDLADYHCGQGYSYPYTFGGGTKLEIKRTVAAPSVFIFPPSDEQLKSGTASVVCLLNNFYPREAKVQWKVDNALQSGNSQESVTEQDSKDSTYSLSSTLTLSKADYEKHKVYACEVTHQGLSSPVTKSFNRGEC | – | – | – | – | – | – | binds | no binding (tested: CD16V protein up to 10 µg/mL) | no binding (tested: CD16V protein up to 10 µg/mL) | no binding (tested: CD16V protein up to 10 µg/mL) | no binding (tested: CD16V protein up to 10 µg/mL) | no binding (tested: CD16V protein up to 10 µg/mL)
Fc_RR type anti-EpCAM antibody (antibody, human IgG1, kappa) heavy: not shown light: NIVMTQSPKSMSMSVGERVTLTCKASENVVTYVSWYQQKPEQSPKLLIYGASNRYTGVPDRFTGSGSATDFTLTISSVQAEDLADYHCGQGYSYPYTFGGGTKLEIKRTVAAPSVFIFPPSDEQLKSGTASVVCLLNNFYPREAKVQWKVDNALQSGNSQESVTEQDSKDSTYSLSSTLTLSKADYEKHKVYACEVTHQGLSSPVTKSFNRGEC | binds | binds | binds | binds | binds | no binding (tested: CD16V protein up to 10 µg/mL) | – | – | – | – | – | –
